Data reported in US20060233785A1, “Immunointeractive molecules and uses thereof” (priority 2001, published 2006).

Legend:
[1] = Chen Z et al., 1997; cited from earlier work
[2] = test system: basophils; experiment: Basophil Activation Test; type: cell-based, human; conditions: non-latex allergic control subject N2
Method: FIG. 9 is a graphical representation of the basophil Activation Test on a latex allergic donor. Whole blood from a latex allergic, Hev b 6 sensitized subject was incubated with latex allergens. The cells were stained with FITC labelled anti-human IgE polyclonal antibodies and a PE labelled monoclonal anti-human CD63 antibody. Cells were analysed by flow cytometry defining basophils on the basis of scatter (A) and high IgE staining (B). The percentage of activated basophils expressing CD63 was determined (C).
The Basophil Activation Test was performed on whole blood from (A) non-latex allergic subject N2; (B) latex-allergic subject A7; (C) latex-allergic subject A8 and (D) latex-allergic subject A10. Antigens: latex glove extract (GE), hevein peptide (hevein), rHev b 6, mutant rHev b 6 (MU rHev b 6), sulphonated rHev b 6, (sul. rHev b 6), rHev b 5, KLH and house dust mite extract (HDM). All allergens were used at 10 μg/ml except for rHev b 6 and mutant rHev b 6 which were used at 0.1, 1 and 10 μg/ml. The cut-off for positive was set at the level of activated basophils after incubation in stimulation buffer alone (no antigen, horizontal line). A plus symbol (+) indicates antigen to which a subject has either a positive clinical history of allergy and/or a positive reading on an allergen-specific IgE ELISA.
A basophil activation assay based on flow cytometry was used to quantify the activation of basophils after incubation with various allergens. This assay was modified from Paris-Kohler A, Demoly P, Persi L, Lebel B, Bousquet J, Arnoux B. In vitro diagnosis of cypress pollen allergy by using cytofluorimetric analysis of basophils (Basotest). J Allergy Clin Immunol 2000; 105:339-45. Whole blood was collected in 6 ml heparinised vacutainers (Greiner). 100 μl aliquots were preincubated with stimulation buffer (20 mM Hepes, 133 mM NaCl, 5 mM KCl, 7 mM CaCl2, 3.5 mM MgCl2, 1 mg/ml BSA, 20 μl/ml heparin, pH 7.4) containing 2 ng/ml IL-3, for 10 min at 37° C., to increase the sensitivity of the assay. Samples were incubated for 20 min at 37° C. with 100 μl of stimulation buffer alone or stimulation buffer containing either rabbit anti-human IgE (Dako) at 1 in 500 dilution, 2 μM N-fMLP (Sigma, Mo, USA), crude allergen extracts, recombinant latex allergens or Keyhole Limpet Haemocyanin (KLH) (Sigma, Mo, USA). Basophil activation was stopped by incubating at 4° C. for 5 min. Normal goat serum (10 μl) was added to each tube to block non-specific binding of the detection antibody (goat anti-human IgE-FITC) and incubated for 10 min at 4° C. Samples were incubated with goat anti-human IgE-FITC (Caltag, Birmingham, Calif.) at a dilution of 1 in 2.5, and mouse anti-human CD63-R-Phycoerythrin (PE; Caltag, Birmingham, Calif.) at a dilution of 1 in 20, in a 20 μl volume of wash buffer (20 mM HEPES, 133 mM NaCl, 5 mM KCl, 0.27 mM EDTA, pH7.3). RBC were lysed by the addition of 2 ml FACS lysing solution (39 mM NH4Cl, 2.5 mM KHCO3, 0.2 mM EDTA) and incubation for 10 min at room temperature. Cells were centrifuged (250 g, 5 min at 4° C.), resuspended in 3 ml wash buffer, and centrifuged as before. Pellets were resuspended in 200 μl wash buffer, and analysed by flow cytometry (FACScalibur, Becton Dickinson) within 2 h of the experiment. 7AAD (Sigma, Mo, USA) was added to the samples 5 min prior to FACS analysis.

[3] = biological target: serum IgE of a latex-allergic, Hev b 5 positive subject; experiment: non-specific inhibition ELISA: serum preincubated with inhibitor, IgE binding to rHev b 5 read (data not shown)
[4] = biological target: IgE from the sera of latex allergic, Hev b 6 sensitised subjects; experiment: inhibition ELISA of IgE binding to plate-coated rHev b 6, estimated
[5] = biological target: serum IgE of latex-allergic subject A8; experiment: inhibition ELISA of IgE binding to plate-coated rHev b 6, inhibitor at 125 µg/ml (FIG. 8D)
[6] = biological target: serum IgE of latex-allergic subject A7; experiment: inhibition ELISA of IgE binding to plate-coated rHev b 6, soluble inhibitor 0.0016-125 µg/ml (FIG. 8B)
[7] = biological target: serum IgE of latex-allergic subject A6; experiment: inhibition ELISA of IgE binding to plate-coated rHev b 6, soluble inhibitor 0.0016-125 µg/ml (FIG. 8C)
[8] = biological target: IgE from the sera of latex allergic, Hev b 6 sensitised subjects; experiment: inhibition ELISA of IgE binding to plate-coated rHev b 6, ratio of the 30% inhibition concentrations

percent inhibition (non-specific control) [3] [%]	Molecule	basophil activation [2]	inhibitor concentration giving 30% inhibition of IgE binding [4] [µg/mL]	also measured
	Hevein: 4.7 kDa hydrophilic protein which forms the N-terminus of pro-hevein (EQCGRQAGGKLCPNNLCCSQWGWCGSTDEYCSPDHNCQSNCKD)			patients with latex allergy reacting on skin testing [1]: 81%
	hevein peptide: 43-mer hevein peptide synthesised according to the prohevein amino acid sequence by Mimotopes (EQCGRQAGGKLCPNNLCCSQWGWCGSTDEYCSPDHNCQSNCKD)	negligible		
	rHev b 5: recombinant latex allergen Hev b 5 (protein) ASVEVESAATALPKNETPEVTKAEETKTEEPAAPPASEQETADATPEKEEPTAAPAEPEAPAPETEKAEEVEKIEKTEEPAPEADQTTPEEKPAEPEPVAEEEPKHETKETETEAPAAPAEGEKPAEEEKPITEAAETATTEVPVEKTEE	negligible		
< 20	Recombinant Hev b 6 (rHev b 6) (protein, not shown: small tags and cut ends) EQCGRQAGGKLCPNNLCCSQWGWCGSTDEYCSPDHNCQSNCKDSGEGVGGGSASNVLATYHLYNSQDHGWDLNAASAYCSTWDANKPYSWRSKYGWTAFCGPVGAHGQSSCGKCLSVTNTGTGAKTTVRIVDQCSNGGLDLDVNVFRQLDTDGKGYERGHITVNYQFVDCGDSFNPLFSVMKSSVIN		0.01	percent inhibition [5]: 100%; percent inhibition [6]: 100%; percent inhibition [7]: 100%
< 20	mutant rHev b 6 (cysteine to alanine substitution at amino acid 3) (protein, not shown: small tags and cut ends) EQAGRQAGGKLCPNNLCCSQWGWCGSTDEYCSPDHNCQSNCKDSGEGVGGGSASNVLATYHLYNSQDHGWDLNAASAYCSTWDANKPYSWRSKYGWTAFCGPVGAHGQSSCGKCLSVTNTGTGAKTTVRIVDQCSNGGLDLDVNVFRQLDTDGKGYERGHITVNYQFVDCGDSFNPLFSVMKSSVIN		125	fold more inhibitor required than rHev b 6 [8]: 12500 fold; maximum percent inhibition [5]: 32%
